Assay: yeast display, Sf9 membrane polyspecificity reagent, FACS + sequencing; frameworks hold sequencing errors
Procedure, shortened: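 A nanobody's polyreactivity label depends on the gate it was sorted from. Yeast display cells were stained with 10% biotinylated, detergent-solubilized Sf9 membrane reagent for 1 hour at 4 °C, enriched on streptavidin microbeads and sorted by FACS. The low and high (top ~1%) gates were set on anti-HA fluorescence for expression and streptavidin fluorescence for reagent binding.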

Sequence | polyreactivity (PSR sort gate)
QVQLVESGGGLVQAGGSLRLSCAASGFTFYFYAMGWYRQAPGKERELVAAITGGTSTYYADSVKGRFTISRDNAKNTVYFQRNSLKPEDTSVYYCAAGYLDVLWLLDLLQLYGYWGQGNQVTVSS | low polyreactivity
QVQLVESGGGLVQAGGSLSLSCAASGFNFGVNTRGWDRQAPGKERELVAAITGSGSSTDYADSVKGRFTISRDNAKNPVYLQMHRLKPEDTAVYYCAASYYSNYPTYLRYYDWGQGTQVTVSS | high polyreactivity
QVQLVESGGGLVQAGGSLRLSCAASGITFGNYAMGWYRQAPGKERELVAAITGSGGRTYYADSVKGRFTISRDNAKNTVYLQMNSLKPEDTAVYYCNRRQYGRKKQYDYWGQGTQVTVSS | high polyreactivity
QVTLVESGGGLVQAGGSLRLSCAASGSIRGYALGWSRQPPGKDRALVAAMSWRGGSTYYADSVKGRFTISRDNAKNTVYLQMNSLKPEETAVYYCAVEYVYWLSWYFQYDYWGQGTQVTVSS | low polyreactivity
QVQLVESGGGLVQAGGSLRLSCAASGSTLPTNAMGWYRQAPGKERELVASNDQSGGSTYADSVKGRFTISRDNAKNTVYLQMNSLKPEDTAVYYCNARDSLRYYTYYFEYYRVGYEYWGQGTQVTVSS | high polyreactivity
QVQLVESGVGLVQAGGSLRLSCAASGGIFGKYVMGWSRQAPGKERELVAAITLRGGSTYYADSVKGRFTISRDNAKNTVYLQMNSLKPEDTAVYYCPRRAYQNWYNYWGQGTQVTVSS | high polyreactivity
QVQLVESGGGLVQAGGSLRLSCAASGSTFRYYAMGWYRQAPGKERELVAAISYGGGITNYADSVKGRLTISRDNAKNTVYLQMNSLKPEDTAVYYCAAYDRITRYDYWGQGTQVTVSS | high polyreactivity
QVQLVESGGGLVKAVGSLRLSCAPSGRISGVYAMGWYRQAPGKERELVAAISWSGGPTYYADSVKGRFTISRDNAKNTFYLEMTSLKPEDTAVYYCNGDTGFRSYLRVYWGQGTQVTVSS | low polyreactivity
QVQLVESGGGLVQAGGSLRLSCAASGRIFGRNTMGWYRKAPGKERELVASIRSGGRTYYADSVKGRFTISRDNAKNTVYLEMNSLKPEDTAVYYCAADNRKSSSSGYDYWGQGTQVTVSS | low polyreactivity
QVQLVESGGGLVQAGGSLRLSCAASGFTFAKYAMGWYRQAPGKERELVAAISSSGGRTYYADSVKGRFTISRDNAKNTVYLQMNSLKPEDTAVYYCAAAIRYRNYVYLYDYWGQGTQVTVSS | high polyreactivity
QVQLEESGGGLVQAGGSLRLSCAASGIIFGTNAMGWYRQAPGKERELVATISWRGGSTYYADSVKGRFTISRDNAKNTVYLQMTSLKPEDTAVYYCAAGASGQRAYRRYYWGQGTQVTVSS | high polyreactivity
QVQLVESGGGLVQAGGSLRLSCAASGRTSGNYAMGWYRPAPGKERELVAAMRYSGSSTFYADSVKGRFTISRDNAKNTVYLQMNSLKPEDTAVYYCARDIRRKGFRYDYWGQGTQVTVSS | high polyreactivity
QVQLVESGGGLVQAGGSLRLSCAASGRIFSPYAMGWYRQAPGKERELVAAISYDDGITYYADSVKGRFTISRDNAKNTVYLQMNCLKPEDTAVYYCAADSVTRPAGDYWGQGTQVTVSS | low polyreactivity
QVQLVESGGGLVHAGGSLRLSCAASGFIFNFYAMGWYRQAPGKERELVAAISRTGGSTYYADSVKGRFTISRDNAKNTVYLQMNSLKPEDTAVYYCNAGCGFRSYGYDPWGQGTQVTVSS | high polyreactivity
QVQLVESGGGLVQAGGSLRLSCAASGRIFLYYAMGWYRQAPGKERDFVAAITYIGGSTYYADSVKGRFTISRDNAKNTVYLQMNSLKPEDTAVYDCATDGYRIDVYHPVYRYDYWGQGTQVTVSS | low polyreactivity
QVQLVESGGGLVQAGGSLRLSCAASGSIFGQYAMGWYRQAPGKERELVASISASAASTYYADSVKGRFTISRDNAMNTVYLQLNSLKPEDTAVYYCNATTRWIGYVTIDFDYWGQGTQVNVSS | low polyreactivity
QVQLVESGGGLVQAGGSLRLSCAASGGTFDVYAMGWYRQAPGKERELVAAISIGGSTYYADSVKGRFTISRDNAKNTVSLQMNSLKPEDTAVYYCAADVNSRYSWRRWYAYDYWGQGTQVTVSS | high polyreactivity
QVHLVESGGGLVQAGGSLRLSCAASGFTFVQYAMGWYRQAPGKERELVATISKSGGITYYADSVKGRFTISRDNAKNTVYLQMNSLKPEDTSVYYCAAAWYYSSRGFHATWGHDYWGQGTQVTVSS | low polyreactivity
QVQLVESGGGLVQAGGSLRLSCAASGRTFVYYAMGWYRQAPGKEREFVAAISRSGGRTSYADSVKGRFTISRDKAKNTVYLQMNSLKPEDTAVYYCAAKVRQWRQGSYSSQYDYWGQGTQVTVSS | high polyreactivity
QVQLVESGGGLVQAGGSLRLSCAASGSIFGSNAMGWYRQAPGKERELVASITSSGGSTHYADSVKGRFTISRDNAKNTVYLQMNSLKPEDTAVYYCATRAYGYYRWLYDYWGQGTQVTVSS | low polyreactivity
QVQLVDSGGGLVQAGGRLRLTCAASGSTFGPNAMGWYSPAPGKERELVADISGGSTNYADSVKGRFTISRDNAKNTVYLQMKSLKPEDTAVYSCATDDHVEPVRRLYGYWGQGTQVTVSS | low polyreactivity
QVQLVESGGGLVQAGGSLRLSCAASGRIFYQYAMGWYRQAPGKEREMVAAISRRGASTYYADSVKGRFTISRDNAKNTVYLQMNSLKPEDTAVYYCAAEPRAYSHQYNYWGQGTQVTVSS | high polyreactivity

Sequence | polyreactivity (PSR sort gate)
QVQLVESGGGLVQAGGRLRLSCAASGRTIVQNAMVWYRHDPGKERALVAAITSSGGRTYYADSVKGRFTISRDNAKNTVYLQMNSLKPEDTAVYYGAVTLRRGYDYWGQGTQVTVSS | high polyreactivity
QVQLVESGGGLVQAGGSLRLSCAAYGFFYNAMGWYRPAPGKERELVAAISWSGASTYYADSVKGRFTISRDNAKNTVYLQMNSLKPEDTAVFYCNADPRLRQTRDYWGQGTQVSVSS | high polyreactivity
QVQLVESGGGLVQAGGSLRLSCAASGFIFVINAMGWYRQAPGKERELVAGISSGGRTNYADSVKGRFTISRDNAKNTVYLEMKSLKPEDTAVYYCAAAPTYKWRRKNYDYWGQGTQVTVSS | high polyreactivity
QVQLVESGGGLVQAGGSLRLSCAASGYTFLAYAMGWYRQAPGKERELVAAISRSGVSTYYADSVKGRFTISRDNAKNTVYLQMNILKPEDTAFYYCAKGVRYQQYHIMYYWGQGTQVTVSS | high polyreactivity
QVQLVESGGGLVQAGGSLRLSCAASGSTFTRYAMGWYRQAPGKERELVAAISLSGGDTYYADSVKGRFTISRDNAKNTVYLQMNSLKPEDTAVYYCAARWGYRGYSYEYWGQGTQVTVSS | high polyreactivity
QVQLVESGGGLVQAGGSLRLSCAASGRTFRVYAMGWYRQAPGKERELVAAIRTDDSTNYADSVKGRFTISRDNAKNTVYLQMNSLKPEDTAVYYCNAEGQFTWLGRRRHKFEYWGQGTQVTVSS | low polyreactivity
QVQLVESGGGLDQAGGSLRLICAASGRTFRFNTMGWYRQAPGKERELVATISRRGGSTYYADSVKGRFTISRDNAKNTVYLLMNSLKPEDTAVYYCAVYGGSYRFDYWGQGTQVTVSS | high polyreactivity
QVQLVESGGGLVQAGGSLRLSCAASGSIFPYYAMGWYRQAPGQEREFVASISSVTSTYADSVKGRFTISRDNAKNTVYLQMNSQKPEDPAVYYCAADRAYSWYSVSRYNYWGQGTQVTVSS | low polyreactivity
QVQLVESGGGLVQAGGSLRLSCAASGLTFYGNAMGWYIQAPGKERELVAAISSRGGRTYYADSVKGRFTISRDNAKNTVYLQMNSLKPEDTAVYYCNDRYKYPDMDYWGQGTQVTVSS | high polyreactivity
QVQLVESGGGLVQEGGSLRLSCAASGRIFPYYAMGWYRQAPGKERELVATITSGGSTYYADSVKGRFTISRDNAKNTVYLQMNSLKPEDTAVYYCAARYPSIYYYRYDYWGQGTQVTVSS | high polyreactivity
QVQLVESGGRLVQAGGSLRLSCAASGTFAVYTMGWYRQAPGKERELVAAISSGGSTYYADSVKGRFTISRDNAKNTVYLQMNSLKPEDTAVYYCNKPLSYGYDYWGQGTQVTVSS | high polyreactivity
QVQLVQSGGGLVQAGGSLRLSCAASGLTFYYNVMGWYRQATGKERELVAAITSGGRTYYGDSVKGRFTISRDNAKNTVYLQMNSLKPEDTAVYYCARPYSRAYDYWGQGTEVTVSS | high polyreactivity
QVQLVESGGGLVQAGGSLRLSSAASGITFRTNTMGWYRQAPGKERELVASISSGTRTNYADSVKGRFTISRDNAKNTVYLQMNSLKPEDTAVDYCAAGPPRNRYRNARFDYWGQGTQVTVSS | high polyreactivity
QVQLVESGGGLVQAGRSLRLSCAASGRNFTYYAMGWDRQAPGKERELVAAISGSAGSTYYADSVKGRFTISRDNAKNTVYLQMNSLKPEDTAVYYCNAVLVRQRDRGGYWGQGTQVTVSS | high polyreactivity
QVQLVASGGGLVQSGGSLRLSCAASGSTITWYAMGWYRQAPGKDRELVARISSGDRPNYADSVKGRFTISRDNAKNTVYLQMNSLKPEDTAVYYCNADYGQPSYYDDGDYWGQGTQVTVSS | low polyreactivity
QVQLVESGGGLVQAGGSLRLSCAASGRTFALYAMGSYRQAPGKERELVAGITFRGGSTYYADSVKGRFTISRDNAKNTVYLQMNSLKPEDTAVYYCAAVPRVNLSRYVYFWYDYWGQGTQVTVSS | high polyreactivity
QVQLVESGGGLVQAGGSLRLSCAASGSILRSNAMGWYRQAPGKERELVATITNSGGSTYADSVKGCFTISRDNAKNTVYLQMNSLKPEDTAVYYCAKAGAGESIAKYDYWGQGTQVTVSS | low polyreactivity
QVQLVESGGGLGQAGGSLRLSCAASGRIFYRYVMGWYRPAPGKERELVAAITTSGGRTYYADSVKGRFTISRDNAKNTVYLQLNSLKPEDTAVYDCAAASPTPVYWSGRDYYYWGQGTQVTVSS | high polyreactivity
QVQLVESGGGLVQAGGSLRLSCAASGSTFSVNAMGWYRQAPGKERELVAAITYSGGSTYYADSVKGRFTISRDNAKNTVYLQMNSLKPEDTAVYYCAAEARYWIYEYDYWGQGTQVTVSS | high polyreactivity
QVQLVESGGGLVQAGGSLRLSCAASGSTFHGYTIGWSRQAPGKERELVAAISSRGTSTYYADSVKGRFTISRDNAMNTVYLQMNSLKTEDTAVYYCATRGWDKYWGQGTQVTVSS | high polyreactivity
QVQLVESGGGLVQAGGSLRLSCAASGSTFHPNGMGWYRQAPGQEREFVAAIRRSGGSTYYADSVKGRFTISRDNAKNTVYLQMNSLKPEDTAVYYCAAKHYYYSPYVRYDPPPGYYWGQGTQVTVSS | high polyreactivity

Reference: the nanobody polyreactivity screen of Harvey et al. (2022)
